In US11130780B2, “Inhibitors of growth factor activation enzymes” (Washington University, priority 2015, dated 2021):

System: T1, Cc1cc(=O)oc2cc(NC(=O)[C@H](CCCNC(=N)N)NC(=O)[C@H](C)NC(=O)[C@H](CCC(N)=O)NC(=O)OC(C)(C)C)ccc12
T1 construct: purchased R&D Systems 4776-SE-010
Experiment: Km determination of fluorogenic substrate with hepsin
Format: biochemical, human
Method: In black 384 well plates (Corning #3575), 12.5 nM HGFA was mixed with various amounts of Boc-QLR-AMC and 1 nM matriptase and 0.3 nM hepsin were mixed with various amounts of Boc-QAR-AMC. Changes in fluorescence (excitation at 380 nm and emission at 460 nn) were measured at room temperature over time in a Biotek Synergy 2 plate reader (Winnoski, Vt.). Using plots of the mean reaction velocity versus substrate concentration and the Michaelis-Menten enzyme kinetics equation within GraphPad Prism version 6.04 for Windows (GraphPad Software, San Diego, Calif., www.graphpad.com), the reaction Vmax and subsequent Km for each of the substrates were determined.

hepsin (Homo sapiens), sequence (chain, as listed by the source): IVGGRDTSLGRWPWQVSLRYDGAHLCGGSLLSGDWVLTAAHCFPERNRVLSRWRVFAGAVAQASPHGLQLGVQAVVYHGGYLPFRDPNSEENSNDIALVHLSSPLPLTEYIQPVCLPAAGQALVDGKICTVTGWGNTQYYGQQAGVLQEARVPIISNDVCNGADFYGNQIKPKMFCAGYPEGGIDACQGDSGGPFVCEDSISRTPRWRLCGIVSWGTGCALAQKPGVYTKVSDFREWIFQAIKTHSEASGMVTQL

Substance: hepsin (Homo sapiens)
- Km: 156 µM
